The assay concerns the target F-actin (filamentous actin), actin purified from chicken breast (Gallus gallus) (chicken (Gallus gallus)), P68139. Description: co-sedimentation. The conditions noted are these: remark: other sources report otherwise.

Here are results for 1 molecule from PMC7360965.

B1: Human UTRN-ABD (utrophin actin-binding domain, amino acids 1-261), wild type, P46939 1-261 (domain or fragment)
chain: MAKYGEHEASPDNGQNEFSDIIKSRSDEHNDVQKKTFTKWINARFSKSGKPPINDMFTDLKDGRKLLDLLEGLTGTSLPKERGSTRVHALNNVNRVLQVLHQNNVELVNIGGTDIVDGNHKLTLGLLWSIILHWQVKDVMKDVMSDLQQTNSEKILLSWVRQTTRPYSQVNVLNFTTSWTDGLAFNAVLHRHKPDLFSWDKVVKMSPIERLEHAFSKAQTYLGIEKLLDPEDVAVQLPDKKSIIMYLTSLFEVLPQQVTID
Turning to B1, the Kd worked out at 1800 nM. In other words, the single-digit micromolar range.

One may read the Kd as the constant that tells how readily two partners part at equilibrium.
